The values that follow come from patent publication US20260015426A1 (23ANDME, published 2026).

Residue numbers refer to the chain shown, from its start. Names and notes keep the numbering of the source.

For assay [1], the target named is T1, hu-M-IL1RAP construct, positions S21-T367 (extracellular domain of the membrane form of human IL1RAP) (human, UniProt Q9NPH3 21-367).
T1 construct: Biotinylated when captured on the Biacore chip
T1 sequence: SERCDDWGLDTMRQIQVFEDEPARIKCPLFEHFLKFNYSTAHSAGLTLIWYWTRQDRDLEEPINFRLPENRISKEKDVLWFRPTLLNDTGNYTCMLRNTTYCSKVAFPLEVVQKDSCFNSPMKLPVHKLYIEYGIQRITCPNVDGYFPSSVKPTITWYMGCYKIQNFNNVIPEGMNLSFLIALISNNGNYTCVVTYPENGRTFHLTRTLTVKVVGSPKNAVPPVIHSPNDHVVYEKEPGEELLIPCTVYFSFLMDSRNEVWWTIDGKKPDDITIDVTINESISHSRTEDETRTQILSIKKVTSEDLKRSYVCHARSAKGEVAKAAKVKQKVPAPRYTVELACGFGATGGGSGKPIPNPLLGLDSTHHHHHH
Nature of the assay: SPR, Fab against parent Fab. In general terms: SPR reads the build-up and loss of mass on a sensor chip optically.

The target of assay [2] is T1, hu-M-IL1RAP construct, positions …. Nature of the assay: phage display selection of affinity maturation libraries + NGS; enrichment of the mutation Y30W (VL).
Assay [3] shares this target. Nature of the assay: SPR, Fab analyte, 25 C.
Assay [4] shares this target. Nature of the assay: phage display selection of affinity maturation libraries + NGS; enrichment of the mutation A51L (VL).
Assay [5] has the same target. The assay is described as follows: phage display selection of affinity maturation libraries + NGS; enrichment of the mutation A51R (VL).
For assay [6] the target is unchanged. The assay is described as follows: phage display selection of affinity maturation libraries + NGS; enrichment of the mutation L33G (VL).
For assay [7] the target is unchanged. The assay is described as follows: phage display selection of affinity maturation libraries + NGS; enrichment of the mutation W92K (VL).
The target is the same in assay [8]. Nature of the assay: phage display selection of affinity maturation libraries + NGS; enrichment of the mutation W92L (VL).
Assay [9] has the same target. The assay is described as follows: SPR, against YKD.
The target in assay [10] is T2, cyno-M-IL1RAP construct, positions S21-T367 (cynomolgus monkey, UniProt P59822 21-367 (rhesus entry)).
T2 construct: Biotinylated when captured on the Biacore chip; also called cy-M-IL1RAP
T2 sequence: T1 sequence with L183F, T273P, K326T
The assay is described as follows: SPR, against YKD.

Assay [11] deals with T1, hu-M-IL1RAP construct, positions …. The assay is described as follows: SPR, IgG analyte (apparent), pH 7.4, 37 C.
Assay [12] concerns the target T2, cyno-M-IL1RAP construct, positions …. The assay is described as follows: SPR, IgG analyte (apparent), pH 7.4, 37 C.
Assay [13] has as its target T3, human IL1RAP (hu-IL1RAP) on human cells (human, UniProt Q9NPH3 21-570).
T3 sequence: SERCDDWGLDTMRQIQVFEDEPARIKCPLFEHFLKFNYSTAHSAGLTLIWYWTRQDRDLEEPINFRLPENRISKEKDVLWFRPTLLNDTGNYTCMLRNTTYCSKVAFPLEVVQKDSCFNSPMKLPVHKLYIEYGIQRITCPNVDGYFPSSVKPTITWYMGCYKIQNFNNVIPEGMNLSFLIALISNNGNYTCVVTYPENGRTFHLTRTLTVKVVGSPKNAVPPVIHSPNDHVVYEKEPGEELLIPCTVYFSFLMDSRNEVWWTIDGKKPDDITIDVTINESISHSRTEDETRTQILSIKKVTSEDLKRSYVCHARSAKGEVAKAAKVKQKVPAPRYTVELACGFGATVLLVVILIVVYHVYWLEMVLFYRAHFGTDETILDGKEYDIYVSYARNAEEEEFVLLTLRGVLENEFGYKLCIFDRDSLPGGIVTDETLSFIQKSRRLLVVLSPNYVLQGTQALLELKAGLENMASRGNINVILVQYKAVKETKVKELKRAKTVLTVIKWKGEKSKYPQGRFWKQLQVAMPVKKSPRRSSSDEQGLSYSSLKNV
The assay is described as follows: cell-based or functional assay.

Assay [14] addresses T4, biotinylated cyno FcRn (Acro biosystems, catalogue number FCM-C5284) (cynomolgus monkey, UniProt Q8SPV9 24-297; Q8SPW0 21-119, limits assumed, biotinylated).
T4 construct: Bought reagent
Nature of the assay: SPR steady state, FcRn captured, 25 C, pH 6.0; pH 6.0.

Assay [15] addresses T5, biotinylated human FcRn (Acro biosystems, catalogue number FCN-H52W7) (human, UniProt P55899 24-297; P61769 21-119, biotinylated).
T5 construct: Bought reagent; also called hu-FcRn
The description is as above.

The target in assay [16] is T1, hu-M-IL1RAP construct, positions …. The assay is described as follows: SPR, against YIS.
The target of assay [17] is T2, cyno-M-IL1RAP construct, positions …. The assay is described as follows: SPR, against YIS.

One may read the koff as a measure of how fast the partners let go of each other. For orientation: kon means the second-order rate constant of association.

T5 sequence (P55899 24-297 limits assumed, chain 1 of 2): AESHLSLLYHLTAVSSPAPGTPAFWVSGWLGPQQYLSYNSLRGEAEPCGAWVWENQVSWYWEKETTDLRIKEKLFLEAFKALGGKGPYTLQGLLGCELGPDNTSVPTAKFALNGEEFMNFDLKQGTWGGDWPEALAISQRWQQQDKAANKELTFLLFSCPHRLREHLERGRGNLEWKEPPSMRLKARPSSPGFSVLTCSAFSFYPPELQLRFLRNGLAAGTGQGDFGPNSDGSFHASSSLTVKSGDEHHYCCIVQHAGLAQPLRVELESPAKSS
T5 sequence (P61769 21-119 limits assumed, chain 2 of 2): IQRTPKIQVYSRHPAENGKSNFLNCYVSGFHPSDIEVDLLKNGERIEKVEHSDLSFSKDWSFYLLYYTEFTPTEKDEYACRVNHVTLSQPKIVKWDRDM

B1: K1 Fab (VL Y30W) (Fab, V domains shown)
VH: EVQLVESGGGLVQPGGSLRLSCAASGFTFSNYAMSWVRQAPGKGLEWVATVTEGGDYNYYLDDVKGRFTISRDNAKNSLYLQMNSLRAEDTAVYYCARDRWPYFFDYWGQGTLVTVSS
VL: DIQMTQSPSSLSASVGDRVTITCRASENIWSNLAWYQQKPGKSPKLLVYGAKNLADGVPSRFSGSGSGTDYTLTISSLQPEDFATYYCQHFWTTPRTFGGGTKVEIK
notes: Fab with 8xHis tag
B1: the “Fold Improvement in KD @ 25° C.” value in assay [1] was 9.06 fold. Besides, the “Enrichment ratio (at the highest selection stringency)” value in assay [2] stood at 3.52 ratio. In [3], this molecule had a Kd of 0.0372 nM, a koff of 0.00018 s⁻¹ and an association rate constant (kon) of 4.82e+06 M⁻¹ s⁻¹.

B2: K8 Fab (VL A51L) (Fab, V domains shown)
VH: B1 VH
VL: B1 VL with W30Y, A51L
notes: Fab with 8xHis tag
With B2, in assay [1], the “Fold Improvement in KD @ 25° C.” value stood at 25.7 fold. The “Enrichment ratio (at the highest selection stringency)” value in assay [4] amounted to 2.9 ratio. In assay [3], this molecule returned a Kd of 0.0131 nM, a koff of 6.76e-05 s⁻¹ and an on-rate constant (kon) of 5.15e+06 M⁻¹ s⁻¹.

B3: K7 Fab (VL A51R) (Fab, V domains shown)
VH: B1 VH
VL: B1 VL with W30Y, A51R
notes: Fab with 8xHis tag
Regarding B3, the “Fold Improvement in KD @ 25° C.” value in [1] was determined as 28.3 fold. Besides, in assay [5], the “Enrichment ratio (at the highest selection stringency)” value is 2.89 ratio. In assay [3], this molecule returned a Kd of 0.0119 nM, a koff of 6.26e-05 s⁻¹ and a kon of 5.25e+06 M⁻¹ s⁻¹.

B4: K2 Fab (VL L33G) (Fab, V domains shown)
VH: B1 VH
VL: B1 VL with W30Y, L33G
notes: Fab with 8xHis tag
Regarding B4, the “Fold Improvement in KD @ 25° C.” value in assay [1] amounted to 9.74 fold. Also, the “Enrichment ratio (at the highest selection stringency)” value in assay [6] was found to be 1.71 ratio. In assay [3], this molecule had a Kd of 0.0346 nM, an off-rate constant (koff) of 0.000158 s⁻¹ and a kon of 4.57e+06 M⁻¹ s⁻¹.

B5: K3 Fab (VL W92K) (Fab, V domains shown)
VH: B1 VH
VL: B1 VL with W30Y, W92K
notes: Fab with 8xHis tag
Turning to B5, in [1], the “Fold Improvement in KD @ 25° C.” value turned out to be 6.44 fold. Also, in assay [7], the “Enrichment ratio (at the highest selection stringency)” value is 3.31 ratio. In assay [3], this molecule gave a Kd of 0.0523 nM, a koff of 0.000198 s⁻¹ and a kon of 3.78e+06 M⁻¹ s⁻¹.

B6: K4 Fab (VL W92L) (Fab, V domains shown)
VH: B1 VH
VL: B1 VL with W30Y, W92L
notes: Fab with 8xHis tag
Regarding B6, the “Fold Improvement in KD @ 25° C.” value in assay [1] worked out at 2.29 fold. Further, the “Enrichment ratio (at the highest selection stringency)” value in assay [8] is 0.416 ratio. In [3], this molecule came in with a Kd of 0.147 nM, an off-rate (koff) of 0.000751 s⁻¹ and a kon of 5.12e+06 M⁻¹ s⁻¹.

B7: h11C5 variant YKD/YTE (antibody, human IgG1, kappa, N297G)
heavy: EVQLVESGGGLVQPGGSLRLSCAASGFTFSNYAMSWVRQAPGKGLEWVATVTEGGDYNYYLDDVKGRFTISRDNAKNSLYLQMNSLRAEDTAVYYCARDDWPYFFDYWGQGTLVTVSSASTKGPSVFPLAPSSKSTSGGTAALGCLVKDYFPEPVTVSWNSGALTSGVHTFPAVLQSSGLYSLSSVVTVPSSSLGTQTYICNVNHKPSNTKVDKKVEPKSCDKTHTCPPCPAPELLGGPSVFLFPPKPKDTLYITREPEVTCVVVDVSHEDPEVKFNWYVDGVEVHNAKTKPREEQYGSTYRVVSVLTVLHQDWLNGKEYKCKVSNKALPAPIEKTISKAKGQPREPQVYTLPPSRDELTKNQVSLTCLVKGFYPSDIAVEWESNGQPENNYKTTPPVLDSDGSFFLYSKLTVDKSRWQQGNVFSCSVMHEALHNHYTQKSLSLSPGK
light: DIQMTQSPSSLSASVGDRVTITCRASENIYSNLAWYQQKPGKSPKLLVYGYKNLADGVPSRFSGSGSGTDYTLTISSLQPEDFATYYCQHFKTTPRTFGGGTKVEIKRTVAAPSVFIFPPSDEQLKSGTASVVCLLNNFYPREAKVQWKVDNALQSGNSQESVTEQDSKDSTYSLSSTLTLSKADYEKHKVYACEVTHQGLSSPVTKSFNRGEC
notes: YKD with M252Y/S254T/T256E (Eu index) in the Fc; N297G; also called 11C5-YKD/YTE; YKDNTE
For B7, the “KD YTE/KD Parental” value in assay [9] is 0.84 ratio. In addition, the “KD YTE/KD Parental” value in assay [10] turned out to be 0.98 ratio. In addition, in [11], the Kd is 0.0254 nM, the koff turned out to be 5.12e-05 s⁻¹ and the kon stood at 2.02e+06 M⁻¹ s⁻¹. Moreover, in assay [12], the Kd was 0.0219 nM, the off-rate (koff) came out at 4.9e-05 s⁻¹ and the association rate constant (kon) amounted to 2.24e+06 M⁻¹ s⁻¹. In assay [13], the “CD4+ T cells, IL-33+IL-12 stimulated IFN-γ, IC50” value was 44 nM; the “HEK-Blue, IL-1β, IC50” value worked out at 0.51 nM; the “HEK-Blue, IL-33, % inhibition at 100 nM” value worked out at 97%; the “HEK-Blue, IL-33, IC50” value came out at 3.3 nM. Further, in [13], the “HEK-Blue, IL-36β, IC50” value worked out at 0.9 nM; the “HEKn, IL-36β stimulated IL-8, IC50” value was 1.16 nM; the “NK cells, IL-33+IL-12 stimulated IFN-γ, IC50” value is 1.32 nM; the “PHLF, IL-1α stimulated IL-8, IC50” value stood at 6.47 nM. Besides, in assay [13], the “PHLF, IL-36β stimulated IL-8, IC50” value is 0.5 nM; the “basophils, IL-33 stimulated p38 phosphorylation, IC50” value is 41 nM; the “monocytes, IL-1β stimulated IL-6, IC50” value worked out at 0.158 nM. Further, the Kd in assay [14] was determined as 21.4 nM. Also, the Kd in assay [15] stood at 130 nM.

B8: h11C5 variant YIS/YTE (antibody, human IgG1, kappa, N297G)
heavy: B7 heavy with V51S, D100R
light: B7 light with K92I
notes: YIS with M252Y/S254T/T256E (Eu index) in the Fc; N297G; also called 11C5-YIS/YTE
Turning to B8, the “KD YTE/KD Parental” value in assay [16] was 0.99 ratio. For the same molecule, in assay [17], the “KD YTE/KD Parental” value was determined as 0.69 ratio. Besides, in [11], the Kd worked out at 0.013 nM, the off-rate (koff) turned out to be 4.43e-05 s⁻¹ and the kon is 3.42e+06 M⁻¹ s⁻¹. In assay [12], the Kd came out at 0.00798 nM, the koff was found to be 3.07e-05 s⁻¹ and the on-rate constant (kon) is 3.85e+06 M⁻¹ s⁻¹.
